Reference: the supplement of paper PMC10567573
± gives the standard deviation.

Experiment: protein stability index of a GFP-peptide fusion (GPS, HEK-293T) (PSI 1-6); higher = more stable
[1] = treatment: DMSO, c terminus: a fixed tail appended
[2] = treatment: MLN4924 1 uM, 8 h, c terminus: a fixed tail appended
[3] = treatment: DMSO, c terminus: native
[4] = treatment: MLN4924 1 uM, 8 h, c terminus: native
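Note: 24-mer peptide tiles fused after GFP, lentivirally expressed, FACS-sorted into six equal bins by GFP/DsRed ratio, decoded by Illumina sequencing, PSI is the read-weighted mean bin number.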

| Sequence | protein stability index [1] | protein stability index [2] | protein stability index [3] | protein stability index [4] |
| --- | --- | --- | --- | --- |
| PATTVTSPNSTPAKTIDTSPPVDL [SNAP91] | 5.25 ± 0.23 | 5.25 ± 0.19 |  |  |
| NKPTMSFKDYIQERSDPVEQGKPV [ETS2] | 4.75 ± 0.23 | 4.83 ± 0.26 |  |  |
| LVTIARKASLWQFLSSEKQICGTH [TRIM43] | 2.06 ± 0.34 | 2.17 ± 0.45 |  |  |
| IYVKLIEECTDLQKEGEFSTCFTE [OAS1] | 2.37 ± 0.2 | 2.26 ± 0.28 |  |  |
| DTYNDMATLFFNPQESAILQLFHQ [CLCN6] | 2.6 ± 0.34 | 2.43 ± 0.21 |  |  |
| MNKSENLLFAGSSLASQVHAAAVN [INVS] | 3.11 ± 0.24 | 3.35 ± 0.34 |  |  |
| QAKTHTDSSEKELEPEAAEEALEN [ACBD3] | 5.52 ± 0.2 | 5.65 ± 0.24 |  |  |
| RALSDTTEELTVIKSSLKDEYQYS [SLC2A12] | 4.54 ± 0.22 | 4.68 ± 0.08 |  |  |
| KLNEQSPTRCTLEAGAMTFHYIIE [SEC22B] | 2.38 ± 0.75 | 2.25 ± 0.46 |  |  |
| YPASTSQDSFEAAGNSTSGSRAGA [KCNA3] | 5.21 ± 0.24 | 5.2 ± 0.35 |  |  |
| LIFFLFIGVILFSSAVYFAEADEP [KCNA4] | 2.19 ± 0.086 | 2.38 ± 0.29 |  |  |
| SELEDLTEPEQRELKTKLTKLEAE [TPD52L3] | 5.31 ± 0.45 | 5.6 ± 0.15 |  |  |
| LVGDDAACIAYIRLTQYMDGSGMP [CAMK2D] | 2.13 ± 0.91 | 1.66 ± 0.13 |  |  |
| VGKSEILESLQDGAAESPYSHLGG [RAB40A] | 4.56 ± 0.27 | 4.46 ± 0.19 |  |  |
| MENVPKENKVVEKAPVQNEAPALG [BEX5] | 5.33 ± 0.19 | 5.46 ± 0.16 |  |  |
| DCMGIDRQHIPDTYLCERCQPRNL [KMT2E] | 3.13 ± 0.33 | 3.4 ± 0.4 |  |  |
| NGSISSAGNSSRNSSQSSSDGSCK [BTBD10] | 5.01 ± 0.23 | 5.2 ± 0.16 |  |  |
| VIFQREQESKNQVHRRGEYNVYST [PPP2R2B] | 3.06 ± 0.14 | 3.04 ± 0.23 |  |  |
| TQEKKRLSRTNEELLWKLQTGDPT [MTUS2] | 4.46 ± 0.34 | 4.36 ± 0.11 |  |  |
| DTLQNDYFAIKQEVVTPDNMCMGR [ETS1] | 3.65 ± 0.31 | 4.05 ± 0.45 |  |  |
| RGWLLTSGTDKVIKLWDMTPVVS [WDFY2] |  |  | 2.01 ± 0.2 | 2.26 ± 0.24 |
| SSPQGKSGPEAARAGGWVSGEEFY [PKD2L1] | 4.51 ± 0.2 | 4.54 ± 0.17 |  |  |
| SYGGGSASSQHSEGSRSSGSNRSG [DVL3] | 5.23 ± 0.081 | 5.16 ± 0.29 |  |  |

| Sequence | protein stability index [1] | protein stability index [2] | protein stability index [3] | protein stability index [4] |
| --- | --- | --- | --- | --- |
| GALLAPIRVLLAFIVLFLLWPFAW [LPCAT4] | 2.68 ± 0.51 | 2.67 ± 0.54 |  |  |
| SQPATPTPLQSRTSIVQAAAGGVP [PDLIM7] | 4.6 ± 0.25 | 4.6 ± 0.19 |  |  |
| GKKEIKPFKRFLRKKSKPKKCVKK [SMOC2] | 3.1 ± 0.25 |  |  |  |
| NRGLILYRLGYFDDALEDFKKVLD [TTC32] | 2.05 ± 0.59 | 2.24 ± 0.14 |  |  |
| SGPMQAALQAAAHASVDIKDVLDF [SMG5] | 4.42 ± 0.17 | 4.18 ± 0.1 |  |  |
| AVINWVKHAKKEREESLPNLLQYV [KLHL12] | 2.02 ± 0.32 | 2.49 ± 0.54 |  |  |
| ILQLEECCTHNNSATLSWKQPPLS [TRIM9] | 2.67 ± 0.42 | 2.78 ± 0.23 |  |  |
| LDNTKKKMEIYQKENKDVIQKNKL [MNAT1] | 4.44 ± 0.2 | 4.34 ± 0.18 |  |  |
| ASLQASIFSGAASLGYGTNVAATG [APBB1IP] | 2.95 ± 0.27 | 2.85 ± 0.33 |  |  |
| ATKSHVDKVIMKLGKTNAKAVSEM [DYNC2LI1] | 3.57 ± 0.21 | 3.51 ± 0.3 |  |  |
| HVQKLSQECLKQLAIKKQQHIDNI [TRIM14] | 3.81 ± 0.36 | 3.75 ± 0.12 |  |  |
| LHPRPDWEHSAPQRLPRSAPPGSL [PCDHGC5] | 4.78 ± 0.19 | 4.75 ± 0.17 |  |  |
| EIDLDSMRNLKASLENSLREVEAR [KRT18] | 4.23 ± 0.28 | 4.23 ± 0.48 |  |  |
| NQPTRFGKLLLRLPSLRTVSSSVI [NR2F2] | 2.44 ± 0.24 | 2.5 ± 0.2 |  |  |
| SGKESPPVSDTPDEGDEPMPIPED [IKZF1] | 5.866 ± 0.015 | 5.71 ± 0.38 |  |  |
| GMDDFLGVYSMPAGTKVFEVPEMS [TLE6] | 3.08 ± 0.23 | 3.15 ± 0.25 |  |  |
| VLRHFHLLSDGSNTLSVSYKKGRM [SLC6A17] | 2.12 ± 0.39 | 2.61 ± 0.17 |  |  |
| PAPAFQPFFFTGAFPFNMQELVLK [ANKRD40] | 2.07 ± 0.82 | 2.77 ± 1.2 |  |  |
| DTLRRRLLAPEAGSHPQQTQKLEE [TOR1AIP2] | 5.35 ± 0.3 | 5.41 ± 0.15 |  |  |
| LGKPDQKDLNENLAATQGLAHMIA [DLC1] | 3.79 ± 0.12 | 3.84 ± 0.23 |  |  |
| SSCTHVTGNYRKGNAHLGYSLVTH [ADAMTSL2] | 2.92 ± 0.7 | 2.77 ± 0.42 |  |  |
| MMHGRSYSLASGAGGGGSKGNSLK [RAB40C] | 4.32 ± 0.061 | 4.51 ± 0.15 |  |  |
| QSLVSILRTTVHHAFPVVTENRGN [CLCN6] | 2.69 ± 0.57 | 2.46 ± 0.059 |  |  |

| Sequence | protein stability index [1] | protein stability index [2] | protein stability index [3] | protein stability index [4] |
| --- | --- | --- | --- | --- |
| CGKYFQGRGLKSHAYIHSVQFSHH [USP39] | 2.37 ± 0.42 | 2.04 ± 0.56 |  |  |
| LVEDMVSQEEAQGLPSSELDAVEN [ZNF24] | 5.5 ± 0.48 | 5.43 ± 0.15 |  |  |
| ESEDDPVVKKIALREIRMLKQLKH [CDKL4] | 2.96 ± 0.52 | 3.08 ± 0.33 |  |  |
| TVGCSSQHTPDQANSDRASIGRRR [PLEKHN1] | 5.04 ± 0.36 | 5.02 ± 0.15 |  |  |
| GSLPGPGQTSGAREPPQAVSIKEA [VENTX] | 5.01 ± 0.41 | 5.52 ± 0.2 |  |  |
| TGILLHPWLRQDPMPLAPTRSHLW [TRIB3] | 2.11 ± 0.25 | 2.18 ± 0.089 |  |  |
| TGIEGNWGRLLEQVGTMALWASQR [ZBED2] | 1.98 ± 0.57 | 2.48 ± 0.49 |  |  |
| SSFSRPLGYPYVNSVSSHASSPYI [DLX1] | 2.62 ± 0.18 | 2.79 ± 0.51 |  |  |
| SGYHYGVWSCEGCKAFFKRSIQGH [ESR2] | 2.03 ± 0.33 | 2.52 ± 0.41 |  |  |
| STDIGALMYPSYTFSGDVQLAQDD [MMP1] | 4.9 ± 0.13 | 4.74 ± 0.28 |  |  |
| DLPVVQGSSSFSLKGYPSLMRSQS [TRIM29] | 3.03 ± 0.25 | 3.3 ± 0.24 |  |  |
| AAAGLHASPMSADRVVAFMDHIRI [NR2F2] | 2.25 ± 0.4 | 2.26 ± 0.34 |  |  |
| QSEHTMVLRCQLSAEEVRFPVSVT [C2CD2L] | 2.64 ± 0.33 | 2.49 ± 0.42 |  |  |
| VVLGSGGVGKSALTVQFVQGIFVE [RAP1B] | 2.99 ± 0.05 | 2.96 ± 0.44 |  |  |
| MSLRNRLSKSRENPEEDEDQRNPA [SOAT1] | 5.58 ± 0.14 | 5.45 ± 0.14 |  |  |
| GLMTQSSLETHHYVDCGGNSTAI [TMEM106C] |  |  | 3.18 ± 0.074 | 3.6 ± 0.13 |
| DFLLRAASFDVCESVDEAGGSGPA [RHOBTB2] | 3.96 ± 0.16 | 4.05 ± 0.29 |  |  |
| RREVERKQKGSEENLDEAREQKEK [ADD1] | 5.5 ± 0.29 | 4.91 ± 0.87 |  |  |
| KIKVRFSFFLQIYLIMIFLGLYIN [HACD3] | 3 ± 0.73 | 2.29 ± 0.96 |  |  |
| IKTAVNLPLERDAESFLLKSPIAP [CDC25B] | 3.23 ± 0.24 | 3.14 ± 0.36 |  |  |
| ILKLEQENCTLVTTFRGHTGGVTA [WDFY2] | 2.79 ± 0.13 | 3.51 ± 0.5 |  |  |
| NRDSSMKLSFRARAYGFRGPGPQL [CHGA] | 2.44 ± 0.28 | 2.47 ± 0.42 |  |  |
| YKPNPQIYVKLIEECTDLQKEGEF [OAS1] | 3.54 ± 0.28 | 3.53 ± 0.19 |  |  |

| Sequence | protein stability index [1] | protein stability index [2] | protein stability index [3] | protein stability index [4] |
| --- | --- | --- | --- | --- |
| SVPMNGTSIQWKNHDQNNHNTDRS [EDNRA] | 4.5 ± 0.29 | 4.92 ± 0.24 |  |  |
| PYTEKPRLWHTACASDEGEVIVFG [KLHDC2] | 2.51 ± 0.21 | 2.86 ± 0.23 |  |  |
| YQSGGRLKRPVNVPFDIFTEEVKF [KCNA4] | 2.42 ± 0.26 | 2.8 ± 0.57 |  |  |
| NGSYLELSSDRVANSSSEAPFPNV [ADAMTSL2] | 4.52 ± 0.18 | 4.28 ± 0.15 |  |  |
| LGDRDRSRAALVCRKWNQMMYSAE [FBXO39] | 2.72 ± 0.21 | 2.79 ± 0.17 |  |  |
| LNPHVHLVGDDAACIAYIRLTQYM [CAMK2D] | 2.32 ± 0.38 | 2.29 ± 0.66 |  |  |
| KSHVMDQAINNAINYLGAESLRPL [IKZF1] | 2.58 ± 0.24 | 2.49 ± 0.31 |  |  |
| NRLASLQQENKVLKIELETYKLKC [CCDC6] | 2.89 ± 0.28 | 3.23 ± 0.21 |  |  |
| LMKGGADLFVENMPGFPDNIRPSS [APMAP] | 3.66 ± 0.1 | 3.77 ± 0.33 |  |  |
| SYMRNENVISELNIEDYFSHHLAV [FBXO39] | 2.26 ± 0.23 | 2.4 ± 0.38 |  |  |
| PTVPSAATSQPTPSQHSAHTSSQP [CCDC6] | 5.21 ± 0.13 | 5.22 ± 0.27 |  |  |
| SGAAASLNVDAAVQQWLQKGTPAS [CHIT1] | 4.12 ± 0.33 | 4.01 ± 0.35 |  |  |
| IDGKGRGVIATKQFSRGDFVVEYH [KMT5A] | 2.91 ± 0.26 | 3.03 ± 0.35 |  |  |
| LEVSQLEGSLQQPKAQSAMSPYLV [SMG5] | 3.37 ± 0.21 | 3.46 ± 0.21 |  |  |
| PLSKSSPATTVTSPNSTPAKTIDT [SNAP91] | 5.18 ± 0.19 | 5.18 ± 0.12 |  |  |
| GVCQSMCHDKYTKIFNDFKDRMKS [ZMYND11] | 3.11 ± 0.032 | 2.92 ± 0.23 |  |  |
| GQINVVKHLLNLGVEIDEINVYGN [ANKRD44] | 2.32 ± 0.46 | 2.29 ± 0.3 |  |  |
| PAGKTPVPAGEEEGELGEYRQKLL [VPS39] | 5.29 ± 0.32 | 5.45 ± 0.2 |  |  |
| SYSLSRKKIVHYTCFDQRKRANAA [CDC14A] | 2.88 ± 0.28 | 3.05 ± 0.12 |  |  |
| KNDVFICGGYNGEVILGDIWKLNL [KLHDC10] | 2.6 ± 0.84 | 2.33 ± 0.74 |  |  |
